# Experiment: pseudovirus neutralisation, TZM-bl
# Conditions: glycan lost; control: wild type
row,Substance,"other: neutralisation sensitivity, other: ID50 (reciprocal plasma dilution)"
1,HIV-1 25711-2.4 Env: N160A,"no change, 1484.35 vs 1822.04"
2,HIV-1 25711-2.4 Env: N301A,"decreases, 749.81 vs 1822.04"
3,HIV-1 25711-2.4 Env: N332A,"decreases, 357.36 vs 1822.04"
4,HIV-1 CAP239.G3 Env: N160A,"increases, 4184.00 vs 1096.00, Fold decrease in ID50 0.26"
5,HIV-1 CAP239.G3 Env: N332A,"decreases, 204.60 vs 1096.00"
